For assay [1], the target named is T1, human CD39 (Accession No. NM_001776.6) expressed on cells (human, UniProt P49961 1-510).
T1 construct: whole, on cells; On Jurkat, 293T or SK-MEL28 cells; also called Jurkat/CD39; 293T/CD39
T1 sequence (looked up): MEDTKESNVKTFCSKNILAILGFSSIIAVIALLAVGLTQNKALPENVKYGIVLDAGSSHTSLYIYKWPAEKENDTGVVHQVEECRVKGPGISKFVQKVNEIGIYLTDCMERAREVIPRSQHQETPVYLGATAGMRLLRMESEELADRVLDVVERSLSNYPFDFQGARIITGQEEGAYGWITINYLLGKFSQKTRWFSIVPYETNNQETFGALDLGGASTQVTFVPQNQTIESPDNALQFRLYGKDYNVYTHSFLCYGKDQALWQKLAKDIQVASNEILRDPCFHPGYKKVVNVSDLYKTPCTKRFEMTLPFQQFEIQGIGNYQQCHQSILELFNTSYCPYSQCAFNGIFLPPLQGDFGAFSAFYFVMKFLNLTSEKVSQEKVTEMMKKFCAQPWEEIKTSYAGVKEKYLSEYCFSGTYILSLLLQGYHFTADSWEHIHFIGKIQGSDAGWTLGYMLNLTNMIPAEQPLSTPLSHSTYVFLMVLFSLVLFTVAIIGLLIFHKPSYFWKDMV
Description: flow cytometry, 293T/CD39 cells, KD from MFI.

Assay [2] addresses T1, human CD39 (Accession No. NM_001776.6) …. Description: flow cytometry, Jurkat/CD39 cells, KD from MFI.
For assay [3] the target is unchanged. Description: flow cytometry, 293T/TIM-3 + CD39 cells, KD from MFI.
The target is the same in assay [4]. In words: flow cytometry, Jurkat/TIM-3 + CD39 cells, KD from MFI.
For assay [5], the target named is T2, recombinant human CD39 (in-house product, 38 to 478 aa of Accession No. NM_001776.6) (human, UniProt P49961 38-478).
T2 construct: also called rhCD39; human CD39-ECD; not shown: Myc and His tags at the C-terminus are named only for the PE-lab
T2 sequence (looked up): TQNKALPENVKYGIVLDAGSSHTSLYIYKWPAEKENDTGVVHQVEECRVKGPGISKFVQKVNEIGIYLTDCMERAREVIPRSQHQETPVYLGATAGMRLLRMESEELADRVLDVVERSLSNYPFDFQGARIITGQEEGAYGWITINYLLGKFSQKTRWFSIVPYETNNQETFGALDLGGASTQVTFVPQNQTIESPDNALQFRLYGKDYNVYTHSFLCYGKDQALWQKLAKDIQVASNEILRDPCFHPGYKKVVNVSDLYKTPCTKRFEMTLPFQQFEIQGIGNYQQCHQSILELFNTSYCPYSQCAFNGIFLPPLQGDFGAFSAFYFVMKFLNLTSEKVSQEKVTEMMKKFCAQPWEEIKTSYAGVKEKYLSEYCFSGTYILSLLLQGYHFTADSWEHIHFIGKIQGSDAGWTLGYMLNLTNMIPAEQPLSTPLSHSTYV
In words: SPR Biacore8K, antibody captured on anti-human IgG, antigen as analyte.

Assay [6] addresses T3, biotinylated human TIM-3-Fc antigen (in-house product, SEQ ID No: 118) (human, biotinylated). Description: flow cytometry, inhibition of biotinylated TIM-3-Fc binding to phosphatidylserine on apoptotic Jurkat cells.
For assay [7], the target named is T3, biotinylated human TIM-3-Fc antigen …. Description: competition ELISA: human Galectin-9 coated, biotinylated human TIM-3-Fc pre-mixed with the antibody dilution series, Streptavidin-HRP, A450; blocked ligand: human Galectin-9.
Assay [8] has as its target T1, human CD39 (Accession No. NM_001776.6) …. Description: flow cytometry, 293T/CD39 cells, KD from MFI. The source holds these as a separate data set.
Assay [9] has as its target T2, recombinant human CD39 (in-house …). Description: SPR Biacore8K, antibody captured on anti-human IgG, antigen as analyte. This is another data set of the same source.
The target of assay [10] is T3, biotinylated human TIM-3-Fc antigen …. In words: flow cytometry, inhibition of biotinylated TIM-3-Fc binding to phosphatidylserine on apoptotic Jurkat cells. The source holds these as a separate data set.

Like-named read-outs stand apart in the source and are kept apart here.

B1: 6-3hIG_sc (antibody)
scFv: QVQLVQSGAELVKPGASVKLSCKASGFSIKDTYVHWVKQAPGKGLEWIGKIDPANVNTKFDPKFQGRVTITADTSTNTAYLQLSSLRSEDTAVYYCALYGYDDDAYYFDYWGQGTLVTVSSGGGGSGGGGSGGGGSGGGGSEIVLTQSPASLSVSPGERATISCRASESVDNYGISFMNWFQQKPGQAPKLLIYAASNQGSGVPARFSGSGSGTDFTLTISSLEPEDFAVYYCQQSKEVPYTFGQGTKLEIK
notes: scFv-Fc homodimer, anti-CD39; also called scFv-Fc homodimeric antibody of anti-CD39_scFv antibody (humanized) 6-3hIG; not shown: GGGG linker and Fc-LALA (human IgG1 Fc with L234A and L235A)
Take B1: the dissociation constant Kd was 18.6 nM in assay [1]; 42.1 nM in [2]; 26.6 nM in assay [3]; 33.6 nM in assay [4]; 0.465 nM in [5]. Moreover, in assay [5], the koff is 0.000187 s⁻¹. In addition, in [5], the kon worked out at 402000 M⁻¹ s⁻¹.

B2: I67_sc (antibody)
scFv: DVQLQESGPSLVQPSQSLSINCTVSGFSLSSYGVHWVRQSPGKGLEWLGVIWRRGSTDYNAAFMSRLSITKDNSKSQVFFKMNRLQADDTATYYCAKGISTATSWFAYWGQGTLVTVSAGGGGSGGGGSGGGGSGGGGSDIVMTQSHKFMSTSVGDRVSVTCKASQNVGTNVAWYQQKPGQSPKALIYSASYRYSGVPDRFTGSGSGTDFTLTISNVQSEDLAEYFCQQYNSYPLTFGAGTKLELK
notes: scFv-Fc homodimer, anti-CD39 (mouse variable regions); also called scFv-Fc homodimeric antibody of anti-CD39_scFv antibody I67; not shown: linker and Fc-LALA (human IgG1 Fc with L234A and L235A)
With B2, the Kd in assay [1] turned out to be 2.37 nM; in assay [2] it was 0.329 nM; in [3], 6.8 nM; in assay [4] it was 0.208 nM; in assay [5] it was 1.65 nM. For the same molecule, the koff in assay [5] was found to be 0.00294 s⁻¹. Moreover, in assay [5], the kon was found to be 1.78e+06 M⁻¹ s⁻¹.

B3: mAnE67_sc (antibody)
scFv: EVQLVESGGGLVKPGGSRKLSCAASGFTFSDYGMHWVRQAPEKGLEWVAYISSGSSIIYYADTVKGRFTISRDNAKNTLFLQMTGLRSEDTAMYYCARKDYPYAMDYWGQGTSLAVSSGGGGSGGGGSGGGGSGGGGSSIVMTQTPKFMSTSVGDRVSVTCKASQNVGTNVAWYQQKPGQSPKALIYWASNRFTGVPDRFTGSGSGTDFTLTISNVQSEDLADYFCQQYSSSPYTFGSGTKLEIK
notes: scFv-Fc homodimer, anti-CD39 (mouse variable regions); also called scFv-Fc homodimeric antibody of anti-CD39_scFv antibody mAnE67; not shown: linker and Fc-LALA (human IgG1 Fc with L234A and L235A)
On to B3, for which the Kd in assay [1] came out at 2.19 nM; in assay [2], 0.334 nM; in assay [3], 5.5 nM; in assay [4], 0.343 nM; in assay [5] it was 4.75 nM. In [5], the off-rate (koff) was found to be 0.00187 s⁻¹. Moreover, the on-rate constant (kon) in assay [5] is 393000 M⁻¹ s⁻¹.

B4: T86_sc (antibody)
scFv: QIQLVQSGPELKKPGETVKISCEASGYTFINYGMNWVKQAPGKGLKWMGWINTYTGEPTYADDFKGRFAFSLETSANTAYLQINNLKNEDTATYFCARKGYYGYPNYYAMDYWGQGTSVTVSSGGGGSGGGGSGGGGSGGGGSDIVMTQSQKFMSTSVGDRVSITCKASQNVGTAVAWYQQKPGQSPKLLIYSASNRYTGVPDRFTGSGSGTDFTLTISNMQSEDLADYFCQQYSSYPITFGTGTKLEIK
notes: scFv-Fc homodimer, anti-CD39 (mouse variable regions); also called scFv-Fc homodimeric antibody of anti-CD39_scFv antibody T86; not shown: linker and Fc-LALA (human IgG1 Fc with L234A and L235A)
With B4, the Kd amounted to 3.56 nM in assay [1]; 2.18 nM in assay [2]; 16.9 nM in assay [3]; 2.25 nM in assay [4]; 4.28 nM in [5]. Also, in assay [5], the koff stood at 0.000823 s⁻¹. The kon in assay [5] is 192000 M⁻¹ s⁻¹.

B5: HuP4_11_Hu003_Ct (bispecific antibody)
chain 1: EVQLVESGGALVQPGRSLRLSCAVSGFTLSNYGVHWVRQAPGKGLEWVAVILRRGSTDYNAAFMSRFTISKDNSKNTVYLQMNSLRADDTAVVAGDYFDYWGQGTTVTVSSGGGGSGGGGSGGGGSGGGGSDIVMTQSQKFMSTSVGDRVSITCKASQNVGTNVAWYQQKPGQSPKLLIYSASYRYSGVPDRFTGSGSGTDFTLTISNMQSEDLADYFCQQYNSYPLTFGGGTKLEIK
chain 2: QVQLQESGGGLVKPGGSLKLSCAASGFTFSSYYMSWVRQTPDKRLEWVATISNSGGSTYYPDSVKDRFTISRDNAKNTLYLQMSSLKSEDTAMYYCARDPYYTNYVPMDYWGQGTMVTVSSGGGGSGGGGSGGGGSGGGGSDIVMTQSPSFLSASVGDRVTITCKASQYVDTYVAWYQQRPGKAPKPLIYSASTRHTGVPSRFSGSGSGTEFTLTISSLQPEDFATYFCAQYSSSPLTFGGGTKLELK
B5: in assay [6], the half-inhibitory concentration (IC50) was 30.7 nM. Further, the “IC50 (read off the curve)” value in assay [7] is around 3 nM.

B6: mAnE67_Hu003_Fsc (bispecific antibody, not shown: a dimerising Fc or GST)
VH: EVQLVESGGGLVKPGGSRKLSCAASGFTFSDYGMHWVRQAPEKGLEWVAYISSGSSIIYYADTVKGRFTISRDNAKNTLFLQMTGLRSEDTAMYYCARKDYPYAMDYWGQGTSLAVSS
VL: SIVMTQTPKFMSTSVGDRVSVTCKASQNVGTNVAWYQQKPGQSPKALIYWASNRFTGVPDRFTGSGSGTDFTLTISNVQSEDLADYFCQQYSSSPYTFGSGTKLEIK
scFv: B5 chain 2
notes: Fab-scFv-Fc heterodimer: anti-CD39 mAnE67 arm (Knob)
On to B6, for which the values for the dissociation constant (Kd) in [8] and in assay [9] were 3.94 nM and 2.7 nM, respectively. In [10], this molecule gave an IC50 of 19.8 nM.

B7: T86_Hu003_Fsc (bispecific antibody, not shown: a dimerising Fc or GST)
VH: QIQLVQSGPELKKPGETVKISCEASGYTFINYGMNWVKQAPGKGLKWMGWINTYTGEPTYADDFKGRFAFSLETSANTAYLQINNLKNEDTATYFCARKGYYGYPNYYAMDYWGQGTSVTVSS
VL: DIVMTQSQKFMSTSVGDRVSITCKASQNVGTAVAWYQQKPGQSPKLLIYSASNRYTGVPDRFTGSGSGTDFTLTISNMQSEDLADYFCQQYSSYPITFGTGTKLEIK
scFv: B5 chain 2
notes: Fab-scFv-Fc heterodimer: anti-CD39 Fab T86 (Knob)
Turning to B7, the dissociation constant Kd in assay [8] is 9.19 nM; in assay [9] it was 2.4 nM. The IC50 in assay [10] was found to be 23.9 nM.

B8: Tre291_Hu003_Fsc (bispecific antibody, not shown: a dimerising Fc or GST)
VH: QVQLKQSGPGLVQPSQSLSITCTVSGFSLTSYGVHWVRQSPGKGLEWLGVIWRRGSTDYNAAFMSRLSITKDTSKSQVFFKMNSLQTDDTAIYYCAGVRGDAMDYWGQGTSVTVSS
VL: DIVMTQSHKSMSTSVGDRVSVTCKASQNVGTNVAWYQQKPGQSPKALIYSASYRYSGVPDRFTGSGSGTDFTLTISNVQSEDLAEYFCQQYNSYPLTFGGGTKLEIK
scFv: B5 chain 2
notes: Fab-scFv-Fc heterodimer: anti-CD39 Fab Tre291 (Knob)
Take B8: the results for the dissociation constant Kd in assay [8] and in assay [9] were 25.4 nM and 1.36 nM, respectively. This molecule yielded a concentration for half-maximal inhibition (IC50) in assay [10] of 22.4 nM.

B9: Tre_291_sc (antibody)
scFv: QVQLKQSGPGLVQPSQSLSITCTVSGFSLTSYGVHWVRQSPGKGLEWLGVIWRRGSTDYNAAFMSRLSITKDTSKSQVFFKMNSLQTDDTAIYYCAGVRGDAMDYWGQGTSVTVSSGGGGSGGGGSGGGGSGGGGSDIVMTQSHKSMSTSVGDRVSVTCKASQNVGTNVAWYQQKPGQSPKALIYSASYRYSGVPDRFTGSGSGTDFTLTISNVQSEDLAEYFCQQYNSYPLTFGGGTKLEIK
notes: scFv-Fc homodimer, anti-CD39 (mouse variable regions); not shown: linker and Fc-LALA (human IgG1 Fc with L234A and L235A)
As to B9, the Kd is 2.43 nM in [1]; 0.8 nM in [2]; 7.15 nM in [3]; 0.922 nM in assay [4]; 2.22 nM in assay [5]. In assay [5], the dissociation rate constant (koff) worked out at 0.0031 s⁻¹. In addition, the kon in assay [5] was determined as 1.4e+06 M⁻¹ s⁻¹.

The record behind these values is patent publication US20260085127A1 (BRIGHTPATH BIOTHERAPEUTICS, published 2026).
